# Measurements as given in patent US6660715B2, “Nonaqueous solutions and suspensions of macromolecules for pulmonary delivery” (Massachusetts Institute of Technology, priority 1998, dated 2003).
# Test system: M. lysodeikticus
# Experiment: Lysozyme activity after aerosolization from ethanol (standard assay against dried cells of M. lysodeikticus)
# Format: biochemical
# Procedure: […] The reservoir containing the ethanol solution was connected via a plastic tube to a collecting test tube placed in an ice booth to facilitate condensation of the solution. The nebulization was started and continued for 5 minutes. As a result, about one mL of the ethanol solution was collected in the test tube (i.e. was aerosolized). No solution was collected with the nebulizer switched off. The lysozyme activity of the nebulized solution was measured using the standard assay against dried calls of M. lysodeikticus. (Shugar, Biochim. Biophys. Acta 8, 302 (1952)).
substance,measurement,setting,value
lysozyme: hen egg-white lysozyme (a model protein),specific activity of the nebulized solution relative to the initial enzyme solution,"0.1 mg/ml solution in ethanol, compressor nebulizer, 5 minutes","the same, (±10%) as that of the initial enzyme solution"
same,loss of enzymatic activity upon aerosolization,dispersion in ethanol at 1 mg/ml,no appreciable loss of enzymatic activity
same,loss of enzymatic activity upon aerosolization,dispersion in ethanol at 10 mg/ml,no appreciable loss of enzymatic activity
